In patent US20260184777A1 (BEIJING SUNGEN BIOMEDICAL TECHNOLOGY, published 2026):
Substitutions are numbered along the chain they refer to.

T1: human S100A8/A9 heterodimeric antigen, His-tagged (hS100A8/A9-His) (human, UniProt P05109 1-93; P06702 1-114)
T1 sequence 1: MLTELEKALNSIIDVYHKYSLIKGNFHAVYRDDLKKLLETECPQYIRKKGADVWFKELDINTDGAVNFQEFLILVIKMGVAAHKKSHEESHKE
T1 sequence 2: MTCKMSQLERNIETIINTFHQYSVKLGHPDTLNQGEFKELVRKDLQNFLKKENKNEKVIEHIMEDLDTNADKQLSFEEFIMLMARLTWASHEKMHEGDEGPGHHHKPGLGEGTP

B1: CM-68 (antibody, human IgG4 S228P, lambda, V domains shown)
VH: EVQLVESGGGLVQPGGSLRLSCAASGFTFSSYAISWVRQAPGKGLEWVSAISGSGGSTYYAASVKGRFTISRDNSKNTLYLQMNSLRAEDTAVYYCARKYRPSRAFDAWGQGTLVTVSS
VL: SYELTQPPSVSVAPGQTARITCSGDALGDKYASWYQQKPGQAPVLVIYEDAKRPSGIPERFSGSNSGNTATLTISGTQAEDEADYYCQSNDLDAVWVFGGGTKLTVLG
B2: CM-69 (antibody, human IgG4 S228P, lambda, V domains shown)
VH: B1 VH with I34M, Y59W
VL: B1 VL with E49Q, L92A
B3: CM-70 (antibody, human IgG4 S228P, lambda, V domains shown)
VH: B1 VH with I34M, A61H
VL: B1 VL with Y31F, L92A
B4: CM-71 (antibody, human IgG4 S228P, lambda, V domains shown)
VH: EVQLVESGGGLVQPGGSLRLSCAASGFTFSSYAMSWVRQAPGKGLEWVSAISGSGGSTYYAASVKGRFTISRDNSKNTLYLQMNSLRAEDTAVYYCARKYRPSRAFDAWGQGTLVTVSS
VL: B1 VL with Y31F, L92I
B5: CM-72 (antibody, human IgG4 S228P, lambda, V domains shown)
VH: B1 VH with F29Y, I34M
VL: B1 VL with Y31F, L92I
B6: CM-73 (antibody, human IgG4 S228P, lambda, V domains shown)
VH: B1 VH with F29Y, I34M
VL: B1 VL with E49Q, L92I
B7: CM-74 (antibody, human IgG4 S228P, lambda, V domains shown)
VH: B1 VH with I34M, Y59W, A105V, F106Y
VL: B1 VL with K52R, L92I
B8: CM-75 (antibody, human IgG4 S228P, lambda, V domains shown)
VH: B1 VH with I34M, A61V
VL: B1 VL with Y31F, E49Q, L92A
B9: CM-76 (antibody, human IgG4 S228P, lambda, V domains shown)
VH: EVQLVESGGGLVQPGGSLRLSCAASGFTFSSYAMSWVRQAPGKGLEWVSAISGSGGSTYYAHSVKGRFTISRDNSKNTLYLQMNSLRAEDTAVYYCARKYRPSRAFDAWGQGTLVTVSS
VL: B1 VL with Y31F, L92V
B10: CM-77 (antibody, human IgG4 S228P, lambda, V domains shown)
VH: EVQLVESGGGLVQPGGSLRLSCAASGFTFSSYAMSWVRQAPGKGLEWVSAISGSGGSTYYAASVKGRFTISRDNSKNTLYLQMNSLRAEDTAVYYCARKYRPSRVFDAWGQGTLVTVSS
VL: B1 VL with K52N, L92A
B11: CM-78 (antibody, human IgG4 S228P, lambda, V domains shown)
VH: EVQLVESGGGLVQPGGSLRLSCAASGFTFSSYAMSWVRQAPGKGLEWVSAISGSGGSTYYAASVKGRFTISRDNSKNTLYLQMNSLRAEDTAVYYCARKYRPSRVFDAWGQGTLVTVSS
VL: B1 VL with K52H, L92A
B12: CM-79 (antibody, human IgG4 S228P, lambda, V domains shown)
VH: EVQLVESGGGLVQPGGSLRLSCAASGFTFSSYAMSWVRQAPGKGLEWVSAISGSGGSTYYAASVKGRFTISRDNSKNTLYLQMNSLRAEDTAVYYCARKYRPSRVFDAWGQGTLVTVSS
VL: B1 VL with P54N, L92A
B13: CM-80 (antibody, human IgG4 S228P, lambda, V domains shown)
VH: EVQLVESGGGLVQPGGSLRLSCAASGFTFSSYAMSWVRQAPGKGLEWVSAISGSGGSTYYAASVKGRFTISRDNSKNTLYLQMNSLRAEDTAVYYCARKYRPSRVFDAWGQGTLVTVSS
VL: B1 VL with P54Q, L92A
B14: CM-81 (antibody, human IgG4 S228P, lambda, V domains shown)
VH: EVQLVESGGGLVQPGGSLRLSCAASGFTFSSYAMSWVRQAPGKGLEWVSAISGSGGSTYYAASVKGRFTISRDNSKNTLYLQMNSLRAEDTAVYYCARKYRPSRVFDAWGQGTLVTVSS
VL: B1 VL with P54D, L92A
B15: CM-82 (antibody, human IgG4 S228P, lambda, V domains shown)
VH: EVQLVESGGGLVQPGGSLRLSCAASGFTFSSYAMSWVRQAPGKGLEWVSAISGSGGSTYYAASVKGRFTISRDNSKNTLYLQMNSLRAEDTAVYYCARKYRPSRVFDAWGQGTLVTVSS
VL: B1 VL with S55W, L92A
B16: CM-83 (antibody, human IgG4 S228P, lambda, V domains shown)
VH: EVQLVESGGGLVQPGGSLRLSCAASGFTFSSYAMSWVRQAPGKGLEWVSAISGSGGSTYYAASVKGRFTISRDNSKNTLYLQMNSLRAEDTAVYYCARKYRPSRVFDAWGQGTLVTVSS
VL: B1 VL with S55D, L92A
B17: CM-84 (antibody, human IgG4 S228P, lambda, V domains shown)
VH: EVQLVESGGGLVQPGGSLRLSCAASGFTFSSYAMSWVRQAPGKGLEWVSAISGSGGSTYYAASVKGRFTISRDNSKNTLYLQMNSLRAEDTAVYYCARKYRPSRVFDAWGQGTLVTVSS
VL: B1 VL with S55D, L92A, V95Y
B18: CM-85 (antibody, human IgG4 S228P, lambda, V domains shown)
VH: B1 VH with F27Y, I34M, A105V
VL: B1 VL with L92A
B19: CM-86 (antibody, human IgG4 S228P, lambda, V domains shown)
VH: B1 VH with Y32H, I34M, A105V
VL: B1 VL with L92A
B20: CM-87 (antibody, human IgG4 S228P, lambda, V domains shown)
VH: B1 VH with S31D, I34M, A105V
VL: B1 VL with L92A, V95W
B21: CM-88 (antibody, human IgG4 S228P, lambda, V domains shown)
VH: B1 VH with S31D, I34M, A105V
VL: B1 VL with L92A, V95R
B22: CM-89 (antibody, human IgG4 S228P, lambda, V domains shown)
VH: B1 VH with S31D, I34M, A105V
VL: B1 VL with L92A, V95Y
B23: CM-90 (antibody, human IgG4 S228P, lambda, V domains shown)
VH: B1 VH with S31D, I34M, A105V
VL: B1 VL with G28H, L92A
B24: CM-91 (antibody, human IgG4 S228P, lambda, V domains shown)
VH: B1 VH with S31D, I34M, A105V
VL: B1 VL with G28H, S33A, L92A
B25: CM-92 (antibody, human IgG4 S228P, lambda, V domains shown)
VH: B1 VH with S31D, I34M, A105V
VL: B1 VL with G28H, L92A, V95Y
B26: CM-93 (antibody, human IgG4 S228P, lambda, V domains shown)
VH: B1 VH with S31D, I34M, A105V
VL: B1 VL with S55D, L92A, V95Y
B27: CM-94 (antibody, human IgG4 S228P, lambda, V domains shown)
VH: B1 VH with S31D, I34M, A105V
VL: B1 VL with G28H, D50H, A51H, L92A
B28: CM-95 (antibody, human IgG4 S228P, lambda, V domains shown)
VH: B1 VH with S31D, I34M, A105V
VL: B1 VL with D50H, A51H, L92A
B29: CM-96 (antibody, human IgG4 S228P, lambda, V domains shown)
VH: B1 VH with S31D, I34M, A105V
VL: B1 VL with A32M, L92A, V95W
B30: CM-97 (antibody, human IgG4 S228P, lambda, V domains shown)
VH: B1 VH with S31D, I34M, A105V
VL: B1 VL with S55Y, L92A, V95W

Target: T1, human S100A8/A9 heterodimeric antigen, …
Assay: cell-based or functional assay

Binder	Relative IC50 (IC50 relative to CM-1), IL-6 release from hS100A8/A9-activated human PBMCs
B1	1.78 relative to CM-1
B2	1.93 relative to CM-1
B3	1.95 relative to CM-1
B4	1.23 relative to CM-1
B5	0.639 relative to CM-1
B6	0.703 relative to CM-1
B7	1.52 relative to CM-1
B8	2.85 relative to CM-1
B9	1.55 relative to CM-1
B10	0.633 relative to CM-1
B11	0.99 relative to CM-1
B12	0.695 relative to CM-1
B13	0.943 relative to CM-1
B14	2.51 relative to CM-1
B15	0.156 relative to CM-1
B16	2.48 relative to CM-1
B17	0.393 relative to CM-1
B18	1.86 relative to CM-1
B19	1.27 relative to CM-1
B20	0.749 relative to CM-1
B21	1.01 relative to CM-1
B22	0.572 relative to CM-1
B23	1.54 relative to CM-1
B24	1.1 relative to CM-1
B25	0.697 relative to CM-1
B26	0.953 relative to CM-1
B27	2.81 relative to CM-1
B28	1.11 relative to CM-1
B29	1.47 relative to CM-1
B30	0.599 relative to CM-1
